Reference: the supplement of paper PMC9112550, “Optimization of the antimicrobial peptide Bac7 by deep mutational scanning” (BMC Biology, 2022)

Test system: Escherichia coli TOP10
Assay: shrunken log2 fold change of peptide-encoding DNA abundance (4.5 h post-induction vs induction); higher = less antimicrobial activity (less host growth inhibition)
Conditions: time post-induction: 4.5 h; library: site-saturation at positions 5, 18, 19, 20
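Also: peptides expressed intracellularly from a pBAD plasmid library in pooled LB shake-flask culture, induced with 0.3% L-arabinose, DNA abundance read by NGS, three biological replicates, DESeq2 with apeglm shrinkage.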

## RRIRCRPPRLPRPRPRPVAHPRP
  shrunken log2 fold change: -0.277

## RRIRIRPPRLPRPRPRPMEWPRP
  shrunken log2 fold change: -0.00133

## RRIRVRPPRLPRPRPRPKPLPRP
  shrunken log2 fold change: 0.196

## RRIRQRPPRLPRPRPRPNTQPRP
  shrunken log2 fold change: -0.621

## RRIRTRPPRLPRPRPRPFAIPRP
  shrunken log2 fold change: 0.061

## RRIRMRPPRLPRPRPRPICVPRP
  shrunken log2 fold change: 0.196

## RRIRVRPPRLPRPRPRPKGCPRP
  shrunken log2 fold change: 0.015

## RRIRARPPRLPRPRPRPKCAPRP
  shrunken log2 fold change: 0.363

## RRIRARPPRLPRPRPRPRQRPRP
  shrunken log2 fold change: 1.13

## RRIRCRPPRLPRPRPRPLRMPRP
  shrunken log2 fold change: 0.461

## RRIRDRPPRLPRPRPRPMIKPRP
  shrunken log2 fold change: -0.222

## RRIRPRPPRLPRPRPRPCTSPRP
  shrunken log2 fold change: -0.0721

## RRIRSRPPRLPRPRPRPLGKPRP
  shrunken log2 fold change: 2.2

## RRIRYRPPRLPRPRPRPPNWPRP
  shrunken log2 fold change: -0.00249

## RRIRFRPPRLPRPRPRPNHHPRP
  shrunken log2 fold change: -1.02

## RRIRRRPPRLPRPRPRPIIIPRP
  shrunken log2 fold change: 0.0103

## RRIRDRPPRLPRPRPRPELGPRP
  shrunken log2 fold change: 1.53

## RRIRIRPPRLPRPRPRPNWFPRP
  shrunken log2 fold change: 0.0822

## RRIRKRPPRLPRPRPRPCYFPRP
  shrunken log2 fold change: -0.00436

## RRIRWRPPRLPRPRPRPIASPRP
  shrunken log2 fold change: 0.104

## RRIRTRPPRLPRPRPRPCWVPRP
  shrunken log2 fold change: -0.42

## RRIRGRPPRLPRPRPRPTMNPRP
  shrunken log2 fold change: 0.709

## RRIRFRPPRLPRPRPRPDVSPRP
  shrunken log2 fold change: 0.0432

## RRIRHRPPRLPRPRPRPHWMPRP
  shrunken log2 fold change: -0.785

## RRIRGRPPRLPRPRPRPRQQPRP
  shrunken log2 fold change: 0.614

## RRIRNRPPRLPRPRPRPGLRPRP
  shrunken log2 fold change: 0.0575

## RRIRIRPPRLPRPRPRPVKDPRP
  shrunken log2 fold change: -0.00153

## RRIRMRPPRLPRPRPRPPARPRP
  shrunken log2 fold change: 1.4

## RRIRDRPPRLPRPRPRPRHKPRP
  shrunken log2 fold change: 0.227

## RRIRLRPPRLPRPRPRPGYRPRP
  shrunken log2 fold change: -0.16

## RRIRYRPPRLPRPRPRPIWWPRP
  shrunken log2 fold change: 0.136

## RRIRRRPPRLPRPRPRPWDDPRP
  shrunken log2 fold change: -0.0642

## RRIRNRPPRLPRPRPRPIAIPRP
  shrunken log2 fold change: -0.0153

## RRIRKRPPRLPRPRPRPILFPRP
  shrunken log2 fold change: -0.0861

## RRIRGRPPRLPRPRPRPWFWPRP
  shrunken log2 fold change: 0.6

## RRIRCRPPRLPRPRPRPDWTPRP
  shrunken log2 fold change: -0.268

## RRIRARPPRLPRPRPRPVLTPRP
  shrunken log2 fold change: 0.384

## RRIRCRPPRLPRPRPRPADVPRP
  shrunken log2 fold change: -0.391

## RRIRCRPPRLPRPRPRPNYSPRP
  shrunken log2 fold change: -0.522

## RRIRWRPPRLPRPRPRPVCMPRP
  shrunken log2 fold change: 0.193

## RRIRERPPRLPRPRPRPDTSPRP
  shrunken log2 fold change: -0.417

## RRIRHRPPRLPRPRPRPHDNPRP
  shrunken log2 fold change: -0.483

## RRIRDRPPRLPRPRPRPPTDPRP
  shrunken log2 fold change: 0.564

## RRIRLRPPRLPRPRPRPRLGPRP
  shrunken log2 fold change: 0.518

## RRIRCRPPRLPRPRPRPHYCPRP
  shrunken log2 fold change: -0.342

## RRIRVRPPRLPRPRPRPEIHPRP
  shrunken log2 fold change: -0.0841

## RRIRVRPPRLPRPRPRPEQTPRP
  shrunken log2 fold change: -0.0332

## RRIRNRPPRLPRPRPRPGRWPRP
  shrunken log2 fold change: 0.762

## RRIRMRPPRLPRPRPRPTCVPRP
  shrunken log2 fold change: 0.424

## RRIRLRPPRLPRPRPRPCVFPRP
  shrunken log2 fold change: -0.13

## RRIRHRPPRLPRPRPRPYHAPRP
  shrunken log2 fold change: -1.21

## RRIRDRPPRLPRPRPRPKSDPRP
  shrunken log2 fold change: 0.295

## RRIRFRPPRLPRPRPRPAKEPRP
  shrunken log2 fold change: 0.0148

## RRIRIRPPRLPRPRPRPSIYPRP
  shrunken log2 fold change: -0.925

## RRIRIRPPRLPRPRPRPMLQPRP
  shrunken log2 fold change: -0.452

## RRIRHRPPRLPRPRPRPRSIPRP
  shrunken log2 fold change: -0.374

## RRIRPRPPRLPRPRPRPNDVPRP
  shrunken log2 fold change: -0.206

## RRIRGRPPRLPRPRPRPMINPRP
  shrunken log2 fold change: 0.574

## RRIRNRPPRLPRPRPRPHRCPRP
  shrunken log2 fold change: -0.0136

## RRIRVRPPRLPRPRPRPCRIPRP
  shrunken log2 fold change: -0.385

## RRIRARPPRLPRPRPRPFEMPRP
  shrunken log2 fold change: 0.135

## RRIRRRPPRLPRPRPRPEHHPRP
  shrunken log2 fold change: 0.202

## RRIRERPPRLPRPRPRPWRMPRP
  shrunken log2 fold change: -0.13

## RRIRLRPPRLPRPRPRPVPTPRP
  shrunken log2 fold change: 0.0616

## RRIRVRPPRLPRPRPRPFVTPRP
  shrunken log2 fold change: -0.206

## RRIRPRPPRLPRPRPRPFAMPRP
  shrunken log2 fold change: 0.0938

## RRIRIRPPRLPRPRPRPTNDPRP
  shrunken log2 fold change: -0.246

## RRIRKRPPRLPRPRPRPTDWPRP
  shrunken log2 fold change: 0.169

## RRIRMRPPRLPRPRPRPNVVPRP
  shrunken log2 fold change: -0.0912

## RRIRHRPPRLPRPRPRPKTKPRP
  shrunken log2 fold change: 0.0995

## RRIRCRPPRLPRPRPRPEIFPRP
  shrunken log2 fold change: -0.422

## RRIRPRPPRLPRPRPRPLHIPRP
  shrunken log2 fold change: 0.656

## RRIRCRPPRLPRPRPRPAGHPRP
  shrunken log2 fold change: 0.0641

## RRIRHRPPRLPRPRPRPPLWPRP
  shrunken log2 fold change: 0.323

## RRIRERPPRLPRPRPRPNHCPRP
  shrunken log2 fold change: -0.0763

## RRIRKRPPRLPRPRPRPYWEPRP
  shrunken log2 fold change: 0.0616

## RRIRLRPPRLPRPRPRPPQHPRP
  shrunken log2 fold change: 0.197

## RRIRYRPPRLPRPRPRPKKDPRP
  shrunken log2 fold change: -0.719

## RRIRERPPRLPRPRPRPVLRPRP
  shrunken log2 fold change: -0.156

## RRIRERPPRLPRPRPRPYRSPRP
  shrunken log2 fold change: -1.42

## RRIRCRPPRLPRPRPRPCSKPRP
  shrunken log2 fold change: -0.0735

## RRIRNRPPRLPRPRPRPMPQPRP
  shrunken log2 fold change: -0.0321

## RRIRDRPPRLPRPRPRPNDSPRP
  shrunken log2 fold change: -0.134

## RRIRLRPPRLPRPRPRPCKRPRP
  shrunken log2 fold change: -0.0962

## RRIRQRPPRLPRPRPRPPKEPRP
  shrunken log2 fold change: -0.168

## RRIRFRPPRLPRPRPRPMLFPRP
  shrunken log2 fold change: -0.0947

## RRIRHRPPRLPRPRPRPLEWPRP
  shrunken log2 fold change: -0.0135

## RRIRQRPPRLPRPRPRPPQNPRP
  shrunken log2 fold change: 0.663

## RRIRSRPPRLPRPRPRPIWNPRP
  shrunken log2 fold change: -0.316

## RRIRMRPPRLPRPRPRPGGWPRP
  shrunken log2 fold change: 1.32

## RRIRMRPPRLPRPRPRPMGMPRP
  shrunken log2 fold change: -0.103

## RRIRQRPPRLPRPRPRPWCKPRP
  shrunken log2 fold change: -0.0323

## RRIRVRPPRLPRPRPRPFHKPRP
  shrunken log2 fold change: -0.385

## RRIRPRPPRLPRPRPRPRADPRP
  shrunken log2 fold change: 0.335

## RRIRPRPPRLPRPRPRPEYYPRP
  shrunken log2 fold change: -0.335

## RRIRMRPPRLPRPRPRPHGNPRP
  shrunken log2 fold change: -0.184

## RRIRGRPPRLPRPRPRPKGIPRP
  shrunken log2 fold change: 0.529

## RRIRFRPPRLPRPRPRPLHVPRP
  shrunken log2 fold change: -0.208

## RRIRFRPPRLPRPRPRPPFPPRP
  shrunken log2 fold change: 0.454

## RRIRFRPPRLPRPRPRPWQEPRP
  shrunken log2 fold change: -0.2

## RRIRQRPPRLPRPRPRPIQHPRP
  shrunken log2 fold change: 0.14

## RRIRPRPPRLPRPRPRPYPEPRP
  shrunken log2 fold change: -0.421

## RRIRARPPRLPRPRPRPPCNPRP
  shrunken log2 fold change: 0.0888

## RRIRVRPPRLPRPRPRPCMFPRP
  shrunken log2 fold change: -0.559

## RRIRGRPPRLPRPRPRPLTSPRP
  shrunken log2 fold change: 0.167

## RRIRFRPPRLPRPRPRPTQFPRP
  shrunken log2 fold change: 0.153

## RRIRGRPPRLPRPRPRPVSWPRP
  shrunken log2 fold change: 1.06

## RRIRCRPPRLPRPRPRPDKMPRP
  shrunken log2 fold change: -0.156

## RRIRMRPPRLPRPRPRPDMIPRP
  shrunken log2 fold change: -0.00213

## RRIRTRPPRLPRPRPRPQANPRP
  shrunken log2 fold change: -0.156

## RRIRLRPPRLPRPRPRPRLEPRP
  shrunken log2 fold change: 0.348

## RRIRARPPRLPRPRPRPQCDPRP
  shrunken log2 fold change: 0.0205

## RRIRHRPPRLPRPRPRPSACPRP
  shrunken log2 fold change: -0.0435

## RRIRCRPPRLPRPRPRPSRLPRP
  shrunken log2 fold change: 0.0589

## RRIRYRPPRLPRPRPRPTHGPRP
  shrunken log2 fold change: -0.1

## RRIRWRPPRLPRPRPRPCHQPRP
  shrunken log2 fold change: -0.0867

## RRIRLRPPRLPRPRPRPNPMPRP
  shrunken log2 fold change: 0.0102

## RRIRIRPPRLPRPRPRPNTMPRP
  shrunken log2 fold change: -0.264

## RRIRKRPPRLPRPRPRPNHMPRP
  shrunken log2 fold change: -0.106

## RRIRTRPPRLPRPRPRPMGEPRP
  shrunken log2 fold change: -0.0305

## RRIRTRPPRLPRPRPRPFGCPRP
  shrunken log2 fold change: -0.0582

## RRIRGRPPRLPRPRPRPAIAPRP
  shrunken log2 fold change: 0.91

## RRIRERPPRLPRPRPRPPFCPRP
  shrunken log2 fold change: 0.117

## RRIRERPPRLPRPRPRPCNEPRP
  shrunken log2 fold change: -1.12

## RRIRFRPPRLPRPRPRPPENPRP
  shrunken log2 fold change: 0.102

## RRIRSRPPRLPRPRPRPFGGPRP
  shrunken log2 fold change: -0.0941

## RRIRTRPPRLPRPRPRPGSTPRP
  shrunken log2 fold change: 0.857

## RRIRHRPPRLPRPRPRPQAGPRP
  shrunken log2 fold change: -0.0176

## RRIRCRPPRLPRPRPRPWFFPRP
  shrunken log2 fold change: -0.24

## RRIRARPPRLPRPRPRPQNIPRP
  shrunken log2 fold change: -0.56

## RRIRCRPPRLPRPRPRPGEGPRP
  shrunken log2 fold change: -0.0346

## RRIRHRPPRLPRPRPRPRYCPRP
  shrunken log2 fold change: -0.293

## RRIRFRPPRLPRPRPRPYTTPRP
  shrunken log2 fold change: -0.333

## RRIRCRPPRLPRPRPRPGGGPRP
  shrunken log2 fold change: 0.76

## RRIRDRPPRLPRPRPRPQDIPRP
  shrunken log2 fold change: -0.00598

## RRIRPRPPRLPRPRPRPQCKPRP
  shrunken log2 fold change: -0.398

## RRIRPRPPRLPRPRPRPMRVPRP
  shrunken log2 fold change: 0.998

## RRIRWRPPRLPRPRPRPDELPRP
  shrunken log2 fold change: 0.402

## RRIRQRPPRLPRPRPRPKYGPRP
  shrunken log2 fold change: -0.3

## RRIRCRPPRLPRPRPRPLDMPRP
  shrunken log2 fold change: -0.549

## RRIRVRPPRLPRPRPRPMRHPRP
  shrunken log2 fold change: -0.00914

## RRIRYRPPRLPRPRPRPPPTPRP
  shrunken log2 fold change: 0.867

## RRIRQRPPRLPRPRPRPACLPRP
  shrunken log2 fold change: 0.14

## RRIRMRPPRLPRPRPRPKEEPRP
  shrunken log2 fold change: 0.0115

## RRIRIRPPRLPRPRPRPWAYPRP
  shrunken log2 fold change: 0.0382

## RRIRARPPRLPRPRPRPIKQPRP
  shrunken log2 fold change: -0.0628

## RRIRRRPPRLPRPRPRPAFVPRP
  shrunken log2 fold change: 0.36

## RRIRARPPRLPRPRPRPTFWPRP
  shrunken log2 fold change: 0.445

## RRIRDRPPRLPRPRPRPLQKPRP
  shrunken log2 fold change: -0.0982

## RRIRYRPPRLPRPRPRPNDAPRP
  shrunken log2 fold change: 0.011
